Reference: paper PMC5916898, “Global profiling of protein–DNA and protein–nucleosome binding affinities using quantitative mass spectrometry”

Legend:
Test in all cases: pulldown; 150 mM NaCl, 50 mM Tris pH 8, 0.25% NP-40, 1 mM TCEP; 4 C, 2 h; 100 ug HeLa nuclear lysate
[1] = target: HIVEP1 (Homo sapiens, UniProt P15822)
[2] = target: YY1 (Homo sapiens, UniProt P25490); settings: protein: extract; label: 5' biotin (strand 1)
[3] = target: SP4 (Homo sapiens, UniProt Q02446); settings: protein: extract; label: 5' biotin (strand 1)
[4] = target: T1, CTCF (Homo sapiens, UniProt P49711); settings: protein: extract; label: 5' biotin (strand 1)
T1 sequence: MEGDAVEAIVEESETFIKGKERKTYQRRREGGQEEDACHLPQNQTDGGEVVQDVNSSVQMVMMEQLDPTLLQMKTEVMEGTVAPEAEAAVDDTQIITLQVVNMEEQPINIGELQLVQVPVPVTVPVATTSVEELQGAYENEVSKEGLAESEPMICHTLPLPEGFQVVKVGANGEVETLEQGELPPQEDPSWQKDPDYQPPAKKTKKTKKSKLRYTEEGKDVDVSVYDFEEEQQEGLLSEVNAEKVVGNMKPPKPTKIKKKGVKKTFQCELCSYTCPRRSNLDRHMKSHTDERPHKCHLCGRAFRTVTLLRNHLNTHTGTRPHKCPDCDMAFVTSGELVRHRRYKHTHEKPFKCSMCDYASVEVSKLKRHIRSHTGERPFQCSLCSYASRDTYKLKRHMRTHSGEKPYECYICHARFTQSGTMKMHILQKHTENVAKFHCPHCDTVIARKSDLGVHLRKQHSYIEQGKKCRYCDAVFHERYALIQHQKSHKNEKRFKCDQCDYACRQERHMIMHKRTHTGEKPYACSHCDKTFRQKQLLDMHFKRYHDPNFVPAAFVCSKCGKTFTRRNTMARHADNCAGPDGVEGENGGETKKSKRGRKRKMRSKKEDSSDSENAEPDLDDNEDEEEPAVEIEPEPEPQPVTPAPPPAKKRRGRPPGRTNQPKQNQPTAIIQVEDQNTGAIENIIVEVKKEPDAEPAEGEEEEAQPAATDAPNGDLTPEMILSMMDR

[5] = target: T2, ZBTB43 (Homo sapiens, UniProt O43298); settings: protein: extract; label: 5' biotin (strand 1)
T2 sequence: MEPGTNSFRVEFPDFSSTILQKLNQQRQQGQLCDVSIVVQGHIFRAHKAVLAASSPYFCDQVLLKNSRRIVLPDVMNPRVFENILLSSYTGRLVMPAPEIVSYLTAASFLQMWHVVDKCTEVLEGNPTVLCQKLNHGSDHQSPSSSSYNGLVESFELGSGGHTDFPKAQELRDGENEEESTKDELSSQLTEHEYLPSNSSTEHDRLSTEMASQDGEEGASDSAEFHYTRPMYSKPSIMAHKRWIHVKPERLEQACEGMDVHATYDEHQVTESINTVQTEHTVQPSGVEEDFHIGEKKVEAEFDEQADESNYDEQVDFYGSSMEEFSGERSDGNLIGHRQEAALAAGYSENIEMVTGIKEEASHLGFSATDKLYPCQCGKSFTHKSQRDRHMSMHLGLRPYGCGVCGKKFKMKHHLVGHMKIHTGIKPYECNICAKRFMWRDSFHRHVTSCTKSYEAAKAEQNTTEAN

[6] = target: T3, ZBTB20 (Homo sapiens, UniProt Q9HC78); settings: protein: extract; label: 5' biotin (strand 1)
T3 sequence: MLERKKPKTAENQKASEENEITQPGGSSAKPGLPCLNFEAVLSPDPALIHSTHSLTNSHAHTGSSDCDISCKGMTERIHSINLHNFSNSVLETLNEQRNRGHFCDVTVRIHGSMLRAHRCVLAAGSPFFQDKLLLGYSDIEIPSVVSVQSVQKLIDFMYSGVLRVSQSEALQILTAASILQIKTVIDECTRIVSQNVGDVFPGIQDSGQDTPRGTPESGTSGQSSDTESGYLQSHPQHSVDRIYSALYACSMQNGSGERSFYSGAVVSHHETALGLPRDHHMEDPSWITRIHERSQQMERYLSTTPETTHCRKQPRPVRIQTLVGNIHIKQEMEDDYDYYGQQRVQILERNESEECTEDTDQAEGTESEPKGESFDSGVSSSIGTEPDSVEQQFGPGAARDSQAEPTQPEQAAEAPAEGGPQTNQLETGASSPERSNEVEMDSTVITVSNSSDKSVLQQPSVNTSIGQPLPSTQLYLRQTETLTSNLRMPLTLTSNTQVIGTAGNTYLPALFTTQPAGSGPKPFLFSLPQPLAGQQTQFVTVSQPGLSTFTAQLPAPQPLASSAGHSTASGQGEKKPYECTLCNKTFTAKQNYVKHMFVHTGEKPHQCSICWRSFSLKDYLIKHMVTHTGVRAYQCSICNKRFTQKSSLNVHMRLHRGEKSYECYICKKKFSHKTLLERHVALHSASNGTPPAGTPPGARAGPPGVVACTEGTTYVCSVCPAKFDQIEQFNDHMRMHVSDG

[7] = target: NFAT5 (Homo sapiens, UniProt O94916); settings: protein: extract; label: 5' biotin (strand 1)
[8] = target: PAX6 (Homo sapiens, UniProt P26367); settings: protein: extract; label: 5' biotin (strand 1)
Sequence of PAX6 (P26367 whole entry): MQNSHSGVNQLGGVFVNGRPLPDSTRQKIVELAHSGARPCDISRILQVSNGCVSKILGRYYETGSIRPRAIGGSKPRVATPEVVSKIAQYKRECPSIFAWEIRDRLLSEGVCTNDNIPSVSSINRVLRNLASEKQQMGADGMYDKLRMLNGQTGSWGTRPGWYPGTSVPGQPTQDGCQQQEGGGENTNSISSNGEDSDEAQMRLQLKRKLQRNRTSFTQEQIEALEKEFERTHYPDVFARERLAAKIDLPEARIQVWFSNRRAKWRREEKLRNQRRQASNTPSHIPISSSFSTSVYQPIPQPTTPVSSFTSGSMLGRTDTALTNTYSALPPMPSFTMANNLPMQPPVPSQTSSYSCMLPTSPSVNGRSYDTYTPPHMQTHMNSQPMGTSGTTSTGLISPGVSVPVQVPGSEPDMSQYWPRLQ

Sequence of NFAT5 (O94916 whole entry): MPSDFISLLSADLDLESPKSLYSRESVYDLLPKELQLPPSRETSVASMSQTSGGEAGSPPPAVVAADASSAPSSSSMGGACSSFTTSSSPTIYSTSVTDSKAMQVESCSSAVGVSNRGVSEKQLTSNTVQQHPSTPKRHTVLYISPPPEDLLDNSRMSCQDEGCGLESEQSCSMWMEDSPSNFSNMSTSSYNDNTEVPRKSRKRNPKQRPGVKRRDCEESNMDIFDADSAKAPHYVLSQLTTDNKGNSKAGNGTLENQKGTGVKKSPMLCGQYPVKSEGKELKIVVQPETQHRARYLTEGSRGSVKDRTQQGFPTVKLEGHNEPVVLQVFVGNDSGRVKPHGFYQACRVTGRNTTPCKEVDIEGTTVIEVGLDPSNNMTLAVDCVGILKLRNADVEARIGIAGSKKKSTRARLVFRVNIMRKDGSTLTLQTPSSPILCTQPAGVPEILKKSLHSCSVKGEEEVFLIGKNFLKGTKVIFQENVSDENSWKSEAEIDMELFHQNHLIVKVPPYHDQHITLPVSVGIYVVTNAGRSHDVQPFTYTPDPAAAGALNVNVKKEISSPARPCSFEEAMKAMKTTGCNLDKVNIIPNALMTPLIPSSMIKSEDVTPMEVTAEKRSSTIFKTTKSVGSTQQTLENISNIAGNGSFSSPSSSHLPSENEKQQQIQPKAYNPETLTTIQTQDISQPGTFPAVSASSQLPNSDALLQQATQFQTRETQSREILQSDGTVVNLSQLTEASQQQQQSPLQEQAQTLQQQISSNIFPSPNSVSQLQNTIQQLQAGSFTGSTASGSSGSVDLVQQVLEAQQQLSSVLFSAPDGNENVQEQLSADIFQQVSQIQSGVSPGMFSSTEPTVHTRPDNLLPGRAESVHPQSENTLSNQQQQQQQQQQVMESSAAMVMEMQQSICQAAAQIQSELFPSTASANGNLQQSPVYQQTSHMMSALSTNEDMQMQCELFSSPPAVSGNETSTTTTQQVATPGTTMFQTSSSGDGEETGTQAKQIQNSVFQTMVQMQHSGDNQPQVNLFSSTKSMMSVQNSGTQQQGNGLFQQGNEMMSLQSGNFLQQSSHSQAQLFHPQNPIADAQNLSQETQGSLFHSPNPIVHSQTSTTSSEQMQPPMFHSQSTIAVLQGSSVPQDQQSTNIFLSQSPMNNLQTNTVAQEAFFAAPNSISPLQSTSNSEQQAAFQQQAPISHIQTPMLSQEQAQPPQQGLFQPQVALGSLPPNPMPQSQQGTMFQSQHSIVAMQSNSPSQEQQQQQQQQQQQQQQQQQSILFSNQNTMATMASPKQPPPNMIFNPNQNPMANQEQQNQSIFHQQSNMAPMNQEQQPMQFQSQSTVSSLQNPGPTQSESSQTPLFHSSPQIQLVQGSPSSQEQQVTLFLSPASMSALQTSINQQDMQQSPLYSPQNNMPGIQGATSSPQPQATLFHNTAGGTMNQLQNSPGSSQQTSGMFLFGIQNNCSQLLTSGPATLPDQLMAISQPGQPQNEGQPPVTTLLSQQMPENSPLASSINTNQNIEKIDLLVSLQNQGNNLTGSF
Sequence of YY1 (P25490 whole entry): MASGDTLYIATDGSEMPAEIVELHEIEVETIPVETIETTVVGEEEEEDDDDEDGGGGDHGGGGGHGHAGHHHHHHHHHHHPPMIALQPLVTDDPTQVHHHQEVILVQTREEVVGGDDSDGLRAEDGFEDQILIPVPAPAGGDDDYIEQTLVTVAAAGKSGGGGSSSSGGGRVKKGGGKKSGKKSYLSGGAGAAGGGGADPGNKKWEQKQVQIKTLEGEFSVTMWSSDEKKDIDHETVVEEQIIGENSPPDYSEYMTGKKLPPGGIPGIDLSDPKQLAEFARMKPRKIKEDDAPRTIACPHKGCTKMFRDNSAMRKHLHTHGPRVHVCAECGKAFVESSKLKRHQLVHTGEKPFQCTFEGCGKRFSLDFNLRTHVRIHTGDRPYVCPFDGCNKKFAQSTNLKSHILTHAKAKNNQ
Sequence of SP4 (Q02446 whole entry): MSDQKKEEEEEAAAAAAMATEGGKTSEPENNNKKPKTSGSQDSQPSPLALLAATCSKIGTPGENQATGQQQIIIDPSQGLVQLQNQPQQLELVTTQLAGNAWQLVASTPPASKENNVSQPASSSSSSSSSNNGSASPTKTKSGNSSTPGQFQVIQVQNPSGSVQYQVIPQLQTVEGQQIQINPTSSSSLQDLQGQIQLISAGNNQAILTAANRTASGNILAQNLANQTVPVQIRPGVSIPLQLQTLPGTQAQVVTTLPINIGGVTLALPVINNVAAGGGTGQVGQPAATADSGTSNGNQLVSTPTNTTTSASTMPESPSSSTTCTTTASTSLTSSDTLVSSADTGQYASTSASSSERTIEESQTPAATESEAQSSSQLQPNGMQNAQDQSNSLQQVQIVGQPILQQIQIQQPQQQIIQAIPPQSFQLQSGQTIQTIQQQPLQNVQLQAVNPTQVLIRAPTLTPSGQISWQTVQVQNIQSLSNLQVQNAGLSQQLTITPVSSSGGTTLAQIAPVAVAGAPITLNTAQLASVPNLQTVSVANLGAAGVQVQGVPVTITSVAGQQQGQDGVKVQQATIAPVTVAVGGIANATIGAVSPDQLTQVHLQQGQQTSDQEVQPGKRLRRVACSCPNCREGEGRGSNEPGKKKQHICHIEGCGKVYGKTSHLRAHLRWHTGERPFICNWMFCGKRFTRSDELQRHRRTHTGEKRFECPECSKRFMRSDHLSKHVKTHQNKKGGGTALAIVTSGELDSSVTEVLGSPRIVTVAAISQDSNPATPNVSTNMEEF

B1: CTCF (dsDNA)
DNA 1: TCAGAGTGGCGGCCAGCAGGGGGCGCCCTTGCCAGA
DNA 2: TCTGGCAAGGGCGCCCCCTGCTGGCCGCCACTCTGA
- apparent K (half saturation) [1]: 76.6 nM
- apparent K (half saturation) [2]: 400 nM
- apparent K (half saturation) [3]: 41.3 nM
- apparent K (half saturation) [4]: 16.1 nM
- apparent K (half saturation) [5]: 347 nM

B2: TATA-box (dsDNA)
DNA 1: GCGGCGCTCTATATAAGTGGGCAGTG
DNA 2: CACTGCCCACTTATATAGAGCGCCGC
- apparent K (half saturation) [6]: 98.7 nM

B3: TEAD (dsDNA)
DNA 1: TCGGGACCCAGGCCTGGAATGTTTCCACC
DNA 2: GGTGGAAACATTCCAGGCCTGGGTCCCGA
- apparent K (half saturation) [7]: 94.6 nM
- apparent K (half saturation) [8]: 191 nM
